In paper PMC12482196 one finds binding and percent of cells with the GFP signal in the nucleus data, which are given here for 2 substances.

Data set [1] has as its system T1, MBP-YlAaf1 (Yarrowia lipolytica), ORF:dd6ddf17.
T1 sequence: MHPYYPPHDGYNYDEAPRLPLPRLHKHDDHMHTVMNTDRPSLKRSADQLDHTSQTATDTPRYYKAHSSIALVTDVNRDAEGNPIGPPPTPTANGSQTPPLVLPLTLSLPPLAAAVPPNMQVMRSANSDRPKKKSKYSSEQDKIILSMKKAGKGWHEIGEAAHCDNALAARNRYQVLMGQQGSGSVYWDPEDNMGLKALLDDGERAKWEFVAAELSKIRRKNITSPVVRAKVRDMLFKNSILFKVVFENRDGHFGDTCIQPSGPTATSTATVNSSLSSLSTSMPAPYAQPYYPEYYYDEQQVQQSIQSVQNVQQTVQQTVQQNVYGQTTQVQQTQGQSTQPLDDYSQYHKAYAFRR
In words: EMSA. Particulars: 10 mM Tris-HCl pH 7.5, 50 mM NaCl, 0.5 mM EDTA, 1 mM MgCl2, 4% glycerol, 0.5 mM DTT; 300 ng probe, 0-0.5 ug protein in 20 uL; 4% native PAGE in 0.5x TBE at ….

Data set [2] concerns the target VC-YlAaf2 (Yarrowia lipolytica). Put plainly: split reporter (BiFC, NanoBiT); BiFC with the N-terminal and C-terminal regions of Venus in S. cerevisiae YEF473A, cells grown at 30°C for 16 h in liquid SC-Ura-His medium, fluorescence microscopy, nucleus by DAPI.

Consider “ACCTCCCTTCGTGGTTTATGACGAAACACGCTTAGCTAAAGTTCTAAAGGCTAATATTACGAACTCTGTGAAAAGGCGAAAAACCACAAAAGGGACGTGTGGTGTTGAAAAGGTGAAAAAGAGAAAACGAAAAGTCTGGCCGAAGTCAAT (double strand) [MHY1 promoter 150-bp probe]”, for which the binding result in data set [1] is recorded as “no binding”.
In the case of VN-YlAaf1 (natural protein), the percent of cells with the GFP signal in the nucleus in data set [2] is 17 % of cells.
